Test: soluble fraction after stress (log2 fold change); higher = more stays soluble; pooled small domains, quantitative proteomics
Conditions: stress: 50 degC
In short: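 The stress applied to every library was 50°C. These custom libraries of small protein domains were pooled and measured at high throughput with quantitative proteomics as the read-out. Aggregation propensity is expressed as the base-two logarithm of the fold change in how much of each protein remains soluble. The higher the value, the more of that protein stays in solution.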

Sequence | soluble fraction (log2)
HMAELAKAKLDAAVQVALLKAGALDTDYLAYKLQGMDGVALDDKGSLTGWDTTLETLKSQYPTQFA | -0.302
HMGPPLISLDDGLAKGFGVGVGDTLTINILGRRITATIASLREIDWQSLRFDFAVVLSPGVLEGA | 0.0913
HMRDYKTALQEWVQRTPGQPIAYRLVDELGPDHARVFVMEVTVGGQSAGQGRGRTKKEAEQLAARAALEKL | -0.0907
HMEKYIVNQEEQGKRLDIYVVNKSSELTRTAVQRLIEQEHILVNGRKQKASYKVLEGDIITIERV | 0.573
HMKEFSFNGGKVIMNYEADRIQIKHDSRPNQEVITLMKRNGFKWSPTNQAWQRQITGNAIYVTKNLLKS | -1.35
HMEGLATRLRFLRQARGLSYHALARLSGVTHTALHQIEAGKNIPGLDTAEKIAMALDVDPRWFAYGRGDPS | -1.31
HMNKFRVGDEVEIVKLDKTIQHFGGEEVLSPVGTKTYITYVDVTGKEIEIDKDIYSYHADDLTLV | 0.147
HMRKKTYEIITDDLRRMIEAGLIRPGEKLGAIDQLAAKYRVGRSTVREALSHLKALGLVESRQGGGTYVTK | 0.156
HMPSLSAILHDARVAAGLSMRQASAASGLSIGFISMLEQGKVQDISLQRLGRLVTAYDLEPLDVIEAAG | -1.55
HMRLPVELTDREVEVLRLLAQAMSNGEIARELYIGEATVKTHVSNVLQKLGARDRVAAVVWAHRYGL | -1.59
HMRGLFTVYMVGEKASRVGELDEEMVYESRIGDVFALGATSWRIEEITHDRVLVSPAYGQPGRLPFWH | -2.14
HMGIILDWELFEQFADKLKRKKVDFVIEPYLRFEGRRGEQSTLFIKDPSGNYLEFKAFKNIDMLFEK | -0.874
HMPKNRTDYVQDVLKSLGRPAHYKEITQIINAMLPKEAQYSAKSIQVVLGSSPLFIRVGTGTYALVE | -0.679
HMSGEVLTAVVPETASGERLDKVLPQIFPPYSRSQLQTWLKEGRVTLDREIPAARLAVIGGETLRLEVPSL | -0.145
HMGDKVLIQTAQRLKKDLPFASIVSRFGGDEFLIFLPGISSTERVETIVKKTVFLFIAISTTLF | -0.124
HMATPIAGTKYTLNNTPVYGTEKGPSIGKRSGIYYTWDATVRNGRIRMTNSPARVGVPWQVSFWVEVNKL | -0.533
HMAPFVIQQGQDVRLISKGPGFAVSNDGKALTNAAEGQLARARTANGQTVSGIARQGGIIEIA | 0.00455
HMQAPAFDYSKVQEGVTVNHKIFGDGTVSWIDKARKYIRVQFSVGEKMFTMETAFVQGFLSL | -0.348
HMKEADVRKNEILDAAGILFSEKGYDNTSVTDIMNAVGFAKGTLYHHFKSKEDIMDALIKRQTD | 0.219
HMKKRDAEIMLQREFKLTEAIAMVRDRDIQELLPIALYFKVNINQPTAEIRYNLLNIAKSKTQEFIEAFD | -1.96
HMAQRAADEARTHEILGLLRQARAALDHGGTARAARLRASIAEKLPAAPALPAWFARQLEQVDSQLAELQD | -0.432
HMDHFLRRFQVEGLNLEKLLRLAAEREMDLLQVRRSGRRMTGLVAEKRLPELEELAAQGGWALRLGEY | -0.268
HMDSLSLTELRIDSASPWIGNRISDFSPYAGELVIMIIRGEETIVPNGDTIILDKDLLVIYSS | -2.18
HMGLTYEQILTDVQRFVTQNHADTLSNEGNPEEARKLLKDYILQYVQNRSYHVDGQTTEELVDSLYED | -0.195
HMRAFTPSEAQVAHARRVMEAFWQHQREGHGAFALDGKMVDAPIVKAAARVLARAGLQDPNHPIHLA | -0.0227

Sequence | soluble fraction (log2)
HMVANDQILNQYGISDREAEIIGLLIEGLSNQQIAKQLYISPNTVKTHIKNIYAKVGVNNRLQLFSLLK | -0.173
HMDTNELIDRYVNEVGQHLPRKTRADIEMELRSLLLDTLEEQSGGEPTPKMAAEVLREFGHPEEIAAQYH | -0.0557
HMGGPAGPDFTYTGDDLTRIDYDDGSYKVFTYDAGKLSQIDFTSGGTTTRKTFVYSGDTLIRVDQTI | -0.44
HMSAISSARKEKIIEYLTDHGSARSSEIAEYVDLRPSRVRDYLGELVREDIVVAEGANRNRTYRLK | 0.0293
HMKSAIGEEKAENFAFADLGMDPLSAEGVRTEFGFEQGQFVYKVYFTADGTEYEYWIKASDGSVVKKGMDL | -0.891
HMTLREQISALIKQGKLTQAKLARETGVNGGALSAWINGKYTGNVETVEEPIKHWMALNERK | 0.373
HMKIETVENPLLERTEISALFDSKSGSLTRKEAIDLISKKARIDSSTVYAIKLSNSSGSTRIIGLFY | 0.0692
HMTGNWRQMHKVKSKETIYGIAKEYGITVDELTKANPGMEAPGYTLKKGDYIFIPYATADANV | 0.399
HMAQVDAVQQVLQAFPALRSGQSQHLSQVVAALRQRGILTVGTKTTAWFAQWASVFQLLPLQVPNRIRYQS | -0.066
HMDADGEPIKLDQIGISHLSFTVADVKSLGEELVAKGVKLAAPMEAFTSPEGRISSIFVYDPDGILLQFDD | -0.104
HMTKKSLFNQYLDDQKRLDIVTLQKAELVDLHKLADELNIDQYNQLKKNELIFKILQSNPSE | -0.135
HMASDLPTVTIMGKTFYTYVAKKGESFFGIANRFGWDPELLVKTNRELETPLDKGALIYYPVPKKPK | -0.199
HMTMLLEYNVSRSSKWMNKTIMDAEIPDDILIVMIKRNGQVIVPKGSTEILENDILVLSGNNLNEVALG | -2.33
HMEVGVSGTVFNTDSLNVRKGPGTNFDTVTSLKRGSVVEVFEQSAVDGTVWGRIANGWVNMQYVSL | -0.093
HMGDLLTVDRVAATSGLGVDTIRYYQRLGLLDPPVRHGRRALYSTAHLDRLVEIRQLADEGFSLAQIATL | -1.08
HMNNDFVERLRKLFGHASMAEIARRIDVPHATIRNYFQGRLPAPEVLIKLARETGVSLNWLLTGEGKMFA | -0.253
HMKEGGGYGQLRLKEAAIQHAFDLQNALQFIAERGYQAHENTTLKEAANALNLKPIELLELLKSSQ | 0.281
HMGQPAVSSRDVAEQFGKEHRNVIQSIKNLIAENSALTFMFIEDTYTAGTGKKYPMYYMNRDGFTLLA | 0.224
HMLKNYATPEQRAQLDMLKDKGIIGENELMQLGKYPSQDKASEVLENHADAVKMLDSDEISNRAEAIRSHD | 0.134
HMRNMVSVLDHIEGIGPKRRQLLYEHYGELEKIKEASVEEMAGLDGMNRPAAEAVYNFFLAQRNL | 0.0507
HMINIFKVKKAMEEIFASEWEDSPYTDQKISQILWSRGFSVSTGLVEKYRGQMGVPDANSRLNLN | -2.38
HMKIVPEPGTVLIREYQEERHEVTVTLDGAFDYKGTLYSSLSEIARLITGTRWSGPVFFGLRS | -0.4
HMDFTPDQIARLDDIISRYKDKPGGLIPVLEEAQVALEYLPIGVQKRIAKGLNLPLSRVYGVVTFYSFFTM | -0.0911
HMNSKQELAYQTIRARIVDGSYGPGYRIVIDEVARELGVSPIPVREAVRRLEAEGLITYTRHAGARVVA | -0.184
HMIKITLPDGSVKEYKKGITPAEVAQSISEGLARNVISASYNGKTIETVTPLTTDGSLVLYTWDSPEGK | 0.193

Sequence | soluble fraction (log2)
HMTMKVTADILNMRSEASTNSDIVTKLKKDDELKVIEETKDDDGVTWVKVDFNGQVGFVSKEFLG | 0.284
HMEVLTEPKVQSIDTHGEKSTFVIESPNPLQPDEIAKLVGADGISVRVDRTWLKSHRDSTWTYSILTVS | -0.00748
HMLGRPDMSPIPEGSRNNDLHAWGFGRLANHPDNKRQIEADFFERGRISGLGDAEIRASWNSILRQLGHQ | 0.14
HMEVVELTDDEKMILATLHDGPVEIGHIKQVVGLSGKKWDAATKSLRQKGLINVVLENEQKLMVK | 0.422
HMVDDRPVTGTTLIREWQGRAYEVIVQAGHFEFQGQRYQSLSAIAKVITGTVWNGWAFFGLR | -0.524
HMITETIGANIKTLRDKFRMSQQDLASKMNTARPVISNWENGKTEPSSSQLLKLAKIFDTSTDKILGNV | 0.163
HMEMELNHVARRAGRLSGFLKGELRLSTGLMNRLKWSNAILVNGKPARTNAQVEPGDRITVILD | -0.976
HMRRMTEEQSKLFQGLVSIVQTTLVADMEKGAVTPLLIAEKVDFVADNLYPGKDIDRKEAVAELIRRFSLW | -0.339
HMDAPIIRLLNSLVQRAVTTTASDIHIEPFEGETKVRMRIDGVIIDYVTLQRALHQPLIARIKIMSNLD | -0.202
HMDGEINPYTGREYVTNSVRMHPRRIGYVQVYSRKDHKWTDMTEWAFLGEQERKKVLLGKAYEPPVYL | -1.55
HMVPEMIRDVISKSIRDMGVLPDHMQINERIALIQSLKKQQILGIKGAVAETARQLGISVPTVYRYMKKG | -0.362
HMTNQEFNEVFKLLLAAYPNTKDKESVATIYFLTIANELTKKEFAEAVVKILKTRKSGFIPQPAEILEVAK | -0.67
HMKSKNILLGEYKGKEVHVGEGKYGPFILYDKKFKSIGAYLTENSLMLKDLTIEDYSKIMKFTENSNSKS | -0.651
HMAPVVAILTRQLPLPQAQQLAGQTALVRVVKGGPGNEAELEFAGQNIQVKLPPGRQLTAGEMVTVAFALS | 0.0876
HMPAWKINQELQATVIATKANQTRLRIEGQTFETQTAIALKPGQSLLIKVVSLEPQISFALI | -1.45
HMTTLDTVARQLRDRIREQLDPTGEMSDESLLRTIEEAVYRYSSSGHVLTANEKETVIRRIFHSFR | 0.0252
HMDLTKLFDHDSEYGKSYVFGKITDEMIARAEQTLGYRMPASYIELLKVQNGGMISDELDESWLTTIYGIG | -0.24
HMKIQISGSQRIDENVVVKVAGLSFPQSLLSLEPGQIESKLMQELPVQEVSVQRRLLPPGLDIQLVE | 0.0631
HMAPRKNIRLLRAAQDKAAAEGDHETVDAIRGQIAALIETLPVQYREEYLLQEKGRENGLKLAIENAAK | 0.423
HMEDDIRSSIRTLDQFISKNQITLSKDVKNYILQLLSNDRMVTINELEKIKIYYDSNENIDLDTVKILLN | -0.754
HMKSKNRLTKSYLDSIPGVGRKRKSILLRYFGSIDQIKRASSEDIANVPGIGKITSDLVYNYFNQ | -0.495
HMSVDEVEALYLKIAEDRLEGKLPDKVSESDLMRRYGLTKAQLGAILQRIVHEGWIERTPGHGWRFLPIL | -0.259
HMIDIDNLEKAAILLLSMGTEAAAKVMQKLSRDEVQRLISKMASLSGVSSIEAKWTLQQFFNQYREQSG | -0.638
HMKVEIVRVVKDIHIGDEITKDMVRTVEVGGYNLPDGVVKDTATVIGRFASADMVPGDYIISSKIADAP | -0.121
HMPILRDEVYLSIKEAILTGELAPGERISIGRLLPQIGFSPTPIREALLKLEQEGFVSRLQRGGFIVSR | -0.991
